Reference: patent publication US20230220063A1, “IL-1BETA BINDING ANTIBODIES FOR USE IN TREATING CANCER” (NOVARTIS AG, priority 2017, published 2023)

Assays:
[1] = tested on: patients with a prior heart attack and inflammatory atherosclerosis; assay: CANTOS primary endpoint: major adverse cardiovascular events (MACE); type: in vivo, human; settings: in combination with standard of care
Text: The present invention arose, at least in part, from the analysis of the data generated from the CANTOS trial, which is a randomized, double-blind, placebo-controlled, event-driven trial. […] Participants were followed for incident cancer diagnoses over a median follow-up period of 3.7 years.
MACE is a composite of cardiovascular death, non-fatal myocardial infarction and non-fatal stroke.

[2] = tested on: vasculature in trabecular bone; assay: Blocking IL-1β signalling: blood vessels in the bone microenvironment of mice; type: in vivo
Experimental: Vasculature was visualised following CD34 and endomucin immunohistochemistry and the concentration of vascular endothelial growth factor (VEGF) and endothelin-1 in serum and/or bone marrow was determined by ELISA. Effects on bone volume were measured by Micro computed tomography (uCT).
(§1) Tumor cells, serum, and bone were subsequently resected for downstream analysis.

mouse IL-1β = mouse IL-1β (Mus musculus, UniProt P10749); assay: Cross-reactivity with mouse IL-1β; type: binding
Text: A mouse surrogate anti-IL-1β antibody has been developed and is being used to evaluate the effects of blocking IL-1β in mouse models of cancer. This isotype of the surrogate antibody is IgG2a, which is closely related to human IgG1.

[3] = tested on: post-myocardial infarction patients with elevated hsCRP
[4] = tested on: MDA-MB-231 Luc2-TdTomato cells; assay: Spontaneous human breast cancer metastasis to human bone implants in NOD SCID mice; type: in vivo
Experimental: To model human breast cancer metastasis to human bone implants two human bone discs were implanted subcutaneously into 10-week old female NOD SCID mice (n=10/group) under isofluorane anaesthetic. Mice received an injection of 0.003 mg vetergesic and Septrin was added to the drinking water for 1 week following bone implantation. Mice were left for 4 weeks before injecting 1×10^5 MDA-MB-231 Luc2-TdTomato, MCF7 Luc2 or T47D Luc2 cells in 20% Martigel/79% PBS/1% […] into the two hind mammary fat pads. Primary tumor growth and development of metastases was monitored weekly using an IVIS […] system (Caliper Life Sciences) following sub-cutaneous injection of 30 mg/ml D-luciferin (Invitrogen). On termination of experiments mammary tumors, circulating tumor cells, serum and bone metastases were resected. RNA was processed for downstream analysis by real time PCR, and cell lysates were taken for protein analysis and whole tissue for histology as previously described (Nutter et al., 2014; Ottewell et al., 2014a).
as §1
Whole blood was centrifuged at 10,000 g for 5 minutes and the serum removed for ELISA assays. The cell pellet was re-suspended in 5 ml of FSM lysis solution (Sigma-Aldrich, Pool, UK) to lyse red blood cells. Remaining cells were re-pelleted, washed 3x in PBS and re-suspended in a solution of PBS/10% FCS. Samples from 10 mice per group were pooled prior to isolation of TdTomato positive tumor cells using a MoFlow High performance cell sorter (Beckman Coulter, Cambridge UK) with the […] laser line from a Coherent I-90C tenable argon ion (Coherent, Santa Clara, CA). TdTomato fluorescence was detected by a 555LP dichroic long pass and a 580/30 nm band pass filter. Acquisition and analysis of cells was performed using Summit 4.3 software. Following sorting cells were immediately placed in RNA protect cell reagent (Ambion, Paisley, Renfrew, UK) and stored at -80° C. before RNA extraction.

[5] = murine model of spontaneous human breast cancer metastasis to human bone

mouse IL-1β, sequence (P10749 118-269): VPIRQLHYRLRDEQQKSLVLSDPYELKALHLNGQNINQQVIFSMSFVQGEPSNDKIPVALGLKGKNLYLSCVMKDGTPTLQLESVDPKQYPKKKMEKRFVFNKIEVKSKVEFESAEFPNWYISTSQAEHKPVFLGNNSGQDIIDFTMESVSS

## canakinumab: high-affinity, fully human monoclonal antibody of the IgG1/k to interleukin-1β; INN number 8836
[1]
  risk of major adverse cardiovascular events (MACE): reduces the risk of major adverse cardiovascular events
[2]; 24 hours Ilaris, control 0.09 mm
  length of new blood vessels: 0.06 mm
[2]; compared with control
  endothelin 1 and VEGF in the bone marrow (ELISA): reduced concentrations
[2]; mice treated for 96 hours
  reduction in VEGF concentration: 46%
  reduction in endothelin-1 concentration: 47%
[2]; p < 0.01 vs control
  average length of CD34^+ blood vessels in trabecular bone: reduced the average length of CD34^+ blood vessels
Mouse IL-1β
  cross-reactivity with mouse IL-1β: does not cross-react
[3]; canakinumab groups vs placebo
  all-cause mortality, HR: 0.94
  non-cardiovascular mortality, HR: 0.97
[3]; in vivo
  Anemia (AE reports): 275 (1.11)
  Erythrocytes (at 12 months): High (>6.8): 4 (0.07) N (%)
  Erythrocytes (at 12 months): Low (<3.3): 19 ( 0.32) N (%)
  Erythrocytes (at 12 months): Normal (3.3-6.8): 6002 (99.6) N (%)
  Leucocytes (at 12 months): High (>15,000): 20 (0.33) N (%)
  Leucocytes (at 12 months): Low (<3000): 27 (0.45) N (%)
  Leucocytes (at 12 months): Normal (3000-<15000): 5978 (99.2) N (%)
  Leukopenia (AE reports): 100 (0.40)
  Neutropenia (AE reports): 25 (0.10)
  Neutrophils (at 12 months): Grade 1 (1500-<LLN): 14 (0.24) N (%)
  Neutrophils (at 12 months): Grade 2 (1000-<1500): 28 (0.47) N (%)
  Neutrophils (at 12 months): Grade 3 (500-<1000): 5 (0.08) N (%)
  Neutrophils (at 12 months): Grade 4 (<500): 0 (0.00) N (%)
  Neutrophils (at 12 months): Normal N (%): 5891 (99.2) N (%)
  Platelets (at 12 months): Grade 1 (75,000-<LLN): 782 (13.0) N (%)
  Platelets (at 12 months): Grade 2 (50,000-<75,000): 10 (0.17) N (%)
  Platelets (at 12 months): Grade 3 (25,000-<50,000): 4 (0.07) N (%)
  Platelets (at 12 months): Grade 4 (<25,000): 0 (0.00) N (%)
  Platelets (at 12 months): Normal N (%): 5216 (86.8) N (%)
  Thrombocytopenia (AE reports): 150 (0.60)
[3]; similar rates in canakinumab and placebo treated groups
  Serious tuberculosis infections: 0.06%
[4]; 1 mg/kg IL-1Ra daily or 10 mg/kg canakinumab s.c. every 14 days from day 7, control 7 out of 10
  mice with metastasis detected in human bone implants: 1 out of 10
[4]; Placebo 3.60E+06
  bone metastasis, photons/sec mean values: 6.01E+04 photons/sec
[4]; compared with control group
  size of bone metastases: smaller than those detected in the control group
[4]; mouse, in vivo
  bone turnover and neovascularisation: reduced bone turnover and neovascularisation
[4]; [5]
  bone metastasis: significantly reduced bone metastasis
  primary tumour growth: increasing primary tumour growth
[4]; placebo 108 tumor cells/ml
  tumor cells counted in whole blood: 3 tumor cells/ml
